Results on 41 sequences are retold here after the nanobody polyreactivity screen of Harvey et al. (2022).

A short description of this series: yeast display, Sf9 membrane polyspecificity reagent, FACS + sequencing; frameworks hold sequencing errors. In outline: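 A synthetic nanobody library was expressed on Saccharomyces cerevisiae BJ5465 by galactose induction for 36–48 hours. The library was stained for 1 hour at 4 °C with 10% biotinylated, detergent-solubilized Sf9 membrane reagent and enriched with streptavidin microbeads before FACS. Low and high (top ~1%) gates were set on anti-HA fluorescence for expression and streptavidin fluorescence for reagent binding, and each polyreactivity label reflects the gate of origin.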
In the case of “QVHLVESGGGLDQARGSHRLSCAASGYTIPTYAMGWYRHAPGKERELVAAINWSGSRTYYADSVKGRFTISRDNAKNTVYLQMNSVKPEDTAFYYCAAYAYRVGPIRRHDYWGQGTQVTVSS”, the “polyreactivity (PSR sort gate)” value is “high polyreactivity”.
Under “QVHLVESGGGLFQAGGSLPLSCAASGYIFVRYAKGWYRQAPGKEREFVAAISSSGGSTRYADSVKARFTLSRDNAKNTVYLQMNSLKPEDTAVYYGAATRVARHGSPMYYWGQGTQVTVSS” stands “high polyreactivity”; under “QVHLVESGGGLFQAGGSLRLSCAASGRTFYYNAMGWYRQAPGKEREFVAAITWSGTRTYYADSVKGRFTISRDNAKNTVYLQMNSLKPEDTAVYYCNARAGSGSRFGYWGEGTQVTVSS”, “high polyreactivity”; under “QVHLVESGGGLFQAGGSLRLSCAASGRTFYYYGMGWYRQAPGKERELVASITNGGNTNYADSVKGRFTISRDNAKNTVYLQMNSLKPEDTAVYYCANDVPYWRPVVRYDYWGQGTQVTVSS”, “low polyreactivity”.
Under “QVHLVESGGGLLQAGGSLRLSCAASGYTFVNYAMGWYREAPRKEMELVAAISYRGGSTSYADSVKGRFTISRDNAKNTVYLQMKSLKPEDSAVYYCAVVGQNWQSLRYDYWGQGTQVTVSS” stands “high polyreactivity”; under “QVHLVESGGGLVHAGGSIRLSCAASGSIFGYYAMGWYRQAPGKEREFVAAITWNGGSTYYADSVKGRFTISRDNAKNTVYLEMISLKPEDTAVYYCARTSYARFRNGWTYDHWGQGTQVSVSS”, “low polyreactivity”; under “QVHLVESGGGLVLAGGSLRLSCAASGRIFSFYAMGWYRQAPGKERELVAAISSGGNTYYADSLKGRFTISRDNAKNTVYLQMNSLKPEDTAVYYCATGYRNLSSRYGYWGQGTQVSVSS”, “high polyreactivity”.
To “QVHLVESGGGLVLAGGSLRLSCAASVRIYTRNVMGWYRQAPGKERELVAAISTSGGSTFYADSVKGRFTISRDNAKNTVYLQMNSLKPEDTAVYYCAKRRYGKLEYWGQGTQVTVSS” belongs “high polyreactivity”; to “QVHLVESGGGLVPAGGSLRLSCAASGGIFIFYAMGWYRQAPGKERELVAAISNVSSTNYADSVKGRFTISRDNAKNTVYLQMNSLKPEDTAVYYCNAVGVPSEYYSWGQGTQVTVSS”, “low polyreactivity”.
As to “QVHLVESGGGLVQAAGSLRLSCAASVSTIPPNAMGWDRQAPGKEREFVAAISSVGSSYYADSVKGRFTISRDNAKKTFYLQMNSLKPEDTAVYYCAKGSWYWVEPYDYWGLGTQVTVSS”, the “polyreactivity (PSR sort gate)” value is “high polyreactivity”.
Under “QVHLVESGGGLVQAGCSLRLSCAASGSIFYRYAMGWYRQEPGKECELVAAIRTRGGTYYADSVKGRFTISRDNAKNTVYLQIKSLKPEDTAVYYCNAGYGTWYLWYEYWGQGTQVTVSS” stands “high polyreactivity”.
To “QVHLVESGGGLVQAGGILRLSCPASGQTFWAYAMGWYRQAPGKERELVAAISWRGGSTYYADSVKGRFTISRDNAKNTVYLQMNSLKPEDTAVYYCAAQYLYYGGRRYDFWGQGTQVTVSS” belongs “high polyreactivity”; to “QVHLVESGGGLVQAGGILRLSCSASGRIFSVNAMGWYRQSPGKERELVAAITTRGGTTYYADSVKGRFTISRDNAKNTVYLLMNSLKPEDTAVYYCAAESSWYVYWEWAHDYWGQGTQVTVSS”, “low polyreactivity”; to “QVHLVESGGGLVQAGGRLRLSCAASGFTFAHYDMGWYRQAPGKERELVAAITWSGSSTFYADSLKGRFTISRDNAKNTVYLQMYCMKPEDNAVYYCNADYDVSYWFYQDVIYDYWGQGTQVTVSS”, “low polyreactivity”.
To “QVHLVESGGGLVQAGGRLRLSCAASGFTIGHYAMAWYRQAPGKERELVAAISSGDRTYYADSVKGRFTISRDNAKNTVYLQMNCLKPEDTAVYFCNGVYYSWAQSARFDYWGQGTQVTVSS” belongs “low polyreactivity”; to “QVHLVESGGGLVQAGGRLRLSCAASGIIFRLYGMGWYRQAPGKEREFVATITWRGGRTNYADSVKGRFTIARDNAKNTVYLQMNSLKPEDTAVYYCAKVVRYARSNEYDSWGQGTQVTVSS”, “low polyreactivity”; to “QVHLVESGGGLVQAGGRLRLSCDASGRTFKGYAMGWYRQAPGQERELGAAISFTGGSTYYADSVKGRFTISRDNAKNPVDLQMNSLKPEDTAVYYCNAVNYRGYGYWGQGTQVTVSS”, “high polyreactivity”.
As for “QVHLVESGGGLVQAGGSLRISCAASGFIFEPYAMGWYRQAPGKERELVAAISSTGGSTYADSVKGRFTISRDNAKNTVYIQMNSLKPEDTEGYYCAAKVRISRYTYGYWGQGNQVTVSS”, the “polyreactivity (PSR sort gate)” value is “high polyreactivity”.
To “QVHLVESGGGLVQAGGSLRISCAASGSTFYYYTMGWYRQAPGKERELVAISWDGDSTYYADSVKGRFTISRDNAKNTVYLQMNSLKPEDTAVYYFNAEYTWSGTKIYTYKYDFWGPGTQVTVSS” belongs “low polyreactivity”; to “QVHLVESGGGLVQAGGSLRITCAASGRIFWSYAMGWYRQAPGKEMELVAAITWSGGSTYYADSVKGRFTISRDNAKNTVYLQMIRLKPEDTAVYYCNAATGQPVGLDYWGQGTQVTVSS”, “low polyreactivity”.
To “QVHLVESGGGLVQAGGSLRLICAASGFTFAVYAMGWYRQAPGKERELVAAISRSSGRTYYADSVKGRFTISRDNAKNTVYLQMNSLKPEDTAVYYCNARRGSPAPYDYWGQGTQVTVSS” belongs “high polyreactivity”; to “QVHLVESGGGLVQAGGSLRLICAASGSTFWSYAMGWYRQAPGKERELVAAITSGGRTYYADSVKGRFTISRDNAKNTVYLQMNRLKPEYTAVYNCNAVVRHTYRRFDYWGQGTQVTVSS”, “high polyreactivity”.
Under “QVHLVESGGGLVQAGGSLRLSCAASASTFLYYAMGWNRQPPGKERELVAVISWSGVSTYYADSVKGRFTSSRDNAKYTVYLQMNSLKPEDTAVYYCNTGNHYIRTYGYWGQGTQVTVSS” stands “low polyreactivity”; under “QVHLVESGGGLVQAGGSLRLSCAASASTFQSNAMGWYRQAPGKERELVATITQSGATTYYADSVKGRFTISRDYAKNTVYLQMNSLKPEDTAVYYCNVDTFQKRWFWLDLDGGYWGQGTQVTVSS”, “low polyreactivity”; under “QVHLVESGGGLVQAGGSLRLSCAASGFIFHLNSMGWYRQAPGTERELVAAFSWNGGSTFYADSVKGRFTISRDNAKNTVYLQMNSLKPEDTAVYYCNADFRPAYTYDYWGQGTQVTVSS”, “low polyreactivity”.
Consider “QVHLVESGGGLVQAGGSLRLSCAASGFIFHYNAMGWYRQAPGKERELVAAITSGDSTDYADSVKGRFTISRDNAKNTVYLQMNSLIPEDTAVYYCAAYHREGRRDDYWGQGTQVTVSS”, for which the “polyreactivity (PSR sort gate)” value is given as “low polyreactivity”.
Under “QVHLVESGGGLVQAGGSLRLSCAASGFIFSCYAMGWYRQAPGKERELVATITSGGSTVYADSVKGRFTISRDNAKNTVSLEMNSLKPEDTAVYYSNVDSTLYYLSRDYDYWGQATQVTVSS” stands “high polyreactivity”.
To “QVHLVESGGGLVQAGGSLRLSCAASGFIFVRNARGWYRQAPGKERELVARISRSGGSTYYADSVKGRFTISRDNAKNTVYLQMNSLKQEDTAVYYCAAVLQAYPRLDYWGQGTQVTVSS” belongs “high polyreactivity”; to “QVHLVESGGGLVQAGGSLRLSCAASGFIFYSNAMGWYRQAPGKERELVAAISSGGGSTRYADSVKGRFTISRDNAKNTVYLQMNSLKPQDTAVYYCAAREGYTKFRSTRYYYWGQGTQVTVSS”, “high polyreactivity”; to “QVHLVESGGGLVQAGGSLRLSCAASGFIRNYAMGWYRQAPGKERELVAAITSSGGRTYYADSVKGRFTISRDNAKNRVYLQMNSLKPEDTAVYYCAAPSRITTGPHREYDYWGQGTLVTVSS”, “high polyreactivity”.
To “QVHLVESGGGLVQAGGSLRLSCAASGFTFGIYAMGWYRQAPGKERELVAAIRKGGGSTYYADSVKGRFTISRDNAKNTVYLQMNSLKPEDTAVYYCAADSYRDWHDYWGQGTQVTVSS” belongs “low polyreactivity”; to “QVHLVESGGGLVQAGGSLRLSCAASGFTFPWYAMGWYRQAPGKERELVAAINTGGSTYYADSVKGRFSISRDNAKNTVYLQMNSLKPDDTEVYYCATLGRYRYLNTYYWGSHDYWGQGTQVTVSS”, “high polyreactivity”; to “QVHLVESGGGLVQAGGSLRLSCAASGFTFRTYAMGWYRQAPGKERELVAAITRNGGTYYADSVKGRFTISRDNAKNTVNLQMNSLKPEDTAVYYCATDPAYWGDQPPEDDYWGQGTQVTVSS”, “low polyreactivity”.
For the sequence “QVHLVESGGGLVQAGGSLRLSCAASGFTFSFYAMGWYRQAPGKERELVAAIDRSGGSTYYADSVKGRFTISRDNAKNTVYLQMNSLKPEDTAFYYCAATVFYGYYYWGQGTQVTVSS”, the “polyreactivity (PSR sort gate)” value is recorded as “high polyreactivity”.
For the sequence “QVHLVESGGGLVQAGGSLRLSCAASGFTFSSNAMGWYRQAPGKERELVAAIRSGGTTKYADSVKGRFTISRDNAKNTLYLQMNSLKPEDTAVYYCAARIRDLAGYYYWGQGTQVTVSS”, the “polyreactivity (PSR sort gate)” value is listed as “high polyreactivity”.
Regarding “QVHLVESGGGLVQAGGSLRLSCAASGGIFSYYALGWYRQAPGKERELVAAISSGGTTYYADSVKGRFTISRDNAKNTVYLQMNSLKPEDTAVYYCALLVGHNYWGQGTQVTVSS”, the “polyreactivity (PSR sort gate)” value was “low polyreactivity”.
Under “QVHLVESGGGLVQAGGSLRLSCAASGIIFGGNVMGWYRQAGGKERELVAAITWSGGTTYYADSVKGRFTISRDNAKNTVYLQMNSLKPEDTAVYYCAADRFYLDYVAGTYDYWGQGTQVTVSS” stands “low polyreactivity”.
To “QVHLVESGGGLVQAGGSLRLSCAASGIIFSTYAMGWYRQAPGKERELVAAITSTGSTNYADSVKGRFTISRDNAKNTVYLQINRLKQEDTAVYYCAARYAGPSPTDTGHDYWGQGTQVTVSS” belongs “low polyreactivity”.
On to “QVHLVESGGGLVQAGGSLRLSCAASGIIFYRYAMGWYRQAPGKESELVAAITRRTASTYYADSVKGRFTLSRDNAKNTVYLPLNSLKPEDSAVYYCSAYSPYSHIVDNFDYWGQGTQVTVSS”, for which the “polyreactivity (PSR sort gate)” value is given as “low polyreactivity”.
With “QVHLVESGGGLVQAGGSLRLSCAASGITLGYYVMGWYRQAPGKERELVAAISSSGGRTYYADSVKGRFTISRDNAKNTVYLQMNSLKPEDTAVYYCSADLGRGIYDYWGQGTQVTVSS”, the “polyreactivity (PSR sort gate)” value was “low polyreactivity”.
Take “QVHLVESGGGLVQAGGSLRLSCAASGLIFGGYAMGWDRQAPGKERELVAAISSNSGSTYYADSVKGRFTISRDNAKNTVYLQMNSLKPEDTAVYYCIRYFYQGFDYWGQGTQVTVSS”: the “polyreactivity (PSR sort gate)” value was “high polyreactivity”.
